# Test results taken from US10434074B2, “Peptide and small molecule agonists of EPHA and uses thereof” (CASE WESTERN RESERVE UNIVERSITY, priority 2004, dated 2019).
# Entries after “also recorded” stand apart in the source; their conditions may differ.
# B1: ephrin-A1-Fc: ephrin-A1 dimerized by fusion to the heavy chain of human IgG1 (protein)
# chain: DRHTVFWNSSNPKFRNEDYTIHVQLNDYVDIICPHYEDHSVADAAMEQYILYLVEHEEYQLCQPQSKDQVRWQCNRPSAKHGPEKLSEKFQRFTPFTLGKEFKEGHSYYYISKPIHQHEDRCLRLKVTVSGKITHSPQAHDNPQEKRLAADDPEVRVLHSIGHS
# modifications: left off: a dimerising Fc or GST
# notes: ephrin-A1 dimerized by fusion to the heavy chain of human IgG1
# Tests used:
# [1] = test system: E-cadherin; assay: E-cadherin immunoblot and immunofluorescence; format: cell-based, human
# Procedure: FIGS. 5(A-E) illustrate (A) Ephrin-A1 co-stimulation inhibited the loss of E-cadherin induced by HGF/SF. DU-145 cells were treated as indicated for 24 or 48 hours. Cell lysates were subject to anti-E-cadherin immunoblot. Same membrane was stripped and blotted with anti-ERK1 as loading control. Relative intensity of E-cadherin=intensities of E-cadherin band/intensity of ERK band. (B) Immunofluorescent staining of E-cadherin after 24 hours of the indicated treatment. Note almost exclusive cytoplasmic staining pattern in HGF/SF treated cells, while cotreatment with ephrin-A1 restored significant levels of E-cadherin at cell-cell junction. (C) Ephrin-A1-Fc pre-treatment preserved E-cadherin expression in HGF/SF treated cells. DU-145 cells were pre-treated with Fc or ephrin-A1-Fc for 24 hours. HGF/SF was then added. The cells were cultured for another 24 hours and lysed for anti-E-cadherin immunoblot. Anti-ERK1 was used as loading control. (D) Cells grown on cover slips received same treatment as in C were subject to anti-E-cadherin immunofluorescence analysis. Note the significant preservation of E-cadherin localization at cell-cell adhesion site by ephrin-A1-Fc compared with Fc control. (E) Numbers of total cells and cells without contact with other cells were counted in 6-8 randomly chosen fields. * Fc/HGF/SF vs. ephrin-A1-Fc/HGF/SF: p=4.6×10^−7.
# Cells were cultured on cover slips in 24-well dishes for 24 hours, fixed in 4% formaldehyde for 20 minutes and permeabilized with 0.5% NP-40 for 10 minutes. Blocking was performed using blocking solution containing 2% BSA and 2% goat serum in PBS. Subsequently, cells were incubated with 1 μg/ml anti-EphA2 or anti-E-cadherin antibody. A Texas Red-conjugated goat anti-rabbit IgG or FITC-conjugated rabbit anti-mouse IgG was used to visualize the primary antibodies. Vector-Shield mounting solution containing DAPI (Vector Laboratories) was used to mount the cover slips onto slides.
# Cells cultured in 6 well plates at 70-80% confluence were stimulated with 0.5 μg/ml Fc, 1 μg/ml epnrinA1-Fc or 20 ng/ml HGF/SF or their combinations as indicated. After stimulation, cells were lysed in RIPA buffer (20 mM Tris, pH7.4, 125 mM NaCl, 20 mM NaF, 0.1% SDS, 10% glycerol, 0.5% sodium deoxycholate, and 1% TX-100, 0.5 mM Na3VO4) containing protease inhibitors (1 mM phenylmethylsulphonyl fluoride, and 2 μg/ml each of aprotinin and leupeptin). Cell lysates were clarified by centrifugation at 13,000 rpm for 5 min. Immunoprecipitation was carried out by adding anti-EphA2 antibody to clarified cell lysates and incubated for 1 hour at 4° C. The immunocomplex was captured using γ-bind beads (Pharmacia). Cell lysates or precipitated proteins were separated on 4-20% Tris-glycine gels (Invitrogen) and transferred to Immobilon-P PVDF membranes (Millipore). […] For quantitative analysis, band densities were measured using KODAK 1D imagine analysis software (Eastman Kodak Company).
# [2] = test system: DU-145 cells; assay: Wound healing assay; format: cell-based, human; details: 12 hours
# Procedure: FIGS. 2(A-E) illustrate EphA activation inhibited DU-145 cell migration. (A) Expression of c-Met is elevated in cell lines derived from more malignant prostate cancer. Total cellular proteins were immunoblotted with anti-human c-Met. An anti-tubulin blot was used as a control for protein loading. (B) In a modified Boyden chamber assay, DU-145 cells were placed in the upper chamber and allowed to migrate to the lower chamber containing indicated reagents. After 8 hours, cells were stained with crystal violet and cells remaining in the upper chamber were removed. Top panel: Cells migrated to the undersides of membrane were counted; six high power fields were counted. Results represent means±S.D. Representative fields were shown in the lower panel. (C) Ephrin-A1-Fc inhibits DU-145 cell migration when HGF/SF was uniformly presented in both sides of membranes. The experiment was carried out as described in A. (D) Inhibition of cell scattering by immobilized ephrin-A1 in a SOIL assay (Method). Ephrin-A1-Fc or control Fc was immobilized on 6-well culture dishes. Freshly confluent DU-145 cells on cover slips were transferred to the coated surfaces. Cells were stimulated with HGF/SF to induce migration off the cover slips to immobilized Fc or ephrin-A1-Fc. […] The wound healing was recorded prior to and 12 hours after the addition of Fc, ephrin-A1-Fc (1 μg/ml) and/or HGF/SF (20 ng/ml). […]
molecule,measurement,setting,value
B1,"total E-cadherin, 24 hours pretreatment before HGF/SF",[1]; immunoblot,significantly prevented HGF/SF-induced down-regulation of total cellular E-cadherin
same,total E-cadherin on co-treatment with HGF/SF,"[1]; immunoblot, 24 or 48 hours",significantly preserved
same,"E-cadherin at cell-cell junction, 24 hours pretreatment before HGF/SF",[1]; immunofluorescence,significant fraction of E-cadherin was retained at cell-cell junction
same,E-cadherin at cell-cell junctions on co-treatment with HGF/SF,[1]; immunofluorescence,dramatically retained
same,E-cadherin expression,"[1]; ligand alone vs Fc, immunoblot",moderately increased E-cadherin expression; also recorded: increased E-cadherin expression at 48 hours
same,wound closing,[2]; vs Fc,slowed down the speed of wound closing
same,wound closing with HGF/SF,[2]; vs HGF/SF and Fc,the wound closing was also delayed
